The values below come from publication PMC2582960, “A Structural Model of the Staphylococcus aureus ClfA–Fibrinogen Interaction Opens New Avenues for the Design of Anti-Staphylococcal Therapeutics” (PLoS Pathogens, 2008).

B1: unnamed (parent)
chain 1: GEGQQHHLGGAKQAGDV
chain 2: GTDITNQLTNVTVGIDSGTTVYPHQAGYVKLNYGFSVPNSAVKGDTFKITVPKELNLNGVTSTAKVPPIMAGDQVLANGVIDSDGNVIYTFTDYVNTKDDVKATLTMPAYIDPENVKKTGNVTLATGIGSTTANKTVLVDYEKYGKFYNLSIKGTIDQIDKTNNTYRQTIYVNPSGDNVIAPVLTGNLKPNTDSNALIDQQNTSIKVYKVDNAADLSESYFVNPENFEDVTNSVNITFPNPNQYKVEFNTPDDQITTPYIVVVNGHIDPNSKGDLALRSTLYGYNSNIIWRSMSWDNEVAFNNGSGSGDGIDKPVVP

Variants of B1 are the subject of this test. Put plainly: solid-phase competition (inhibition) assay. The following applies: with partner chain of the complex shown;; read off a plot.
As to chain 1 L8A, the response (Absorbance (405 nm)) is 0.15.
Under chain 1 H6A stands 0.31.
Under chain 1 Q13A stands 0.29; under chain 1 V17A, 0.13.
Take chain 1 G9A: the response (Absorbance (405 nm)) came to 0.21.
Under chain 1 A14S stands 0.29; under chain 1 Q5A, 0.23.
For the variant chain 1 G1A, the response (Absorbance (405 nm)) is 0.25.
Under chain 1 H7A stands 0.28.
Under chain 1 K12A stands 0.23.
With chain 1 E2A, the response (Absorbance (405 nm)) is 0.21.
chain 1 G15A: the response (Absorbance (405 nm)) is 0.28.
chain 1 Q4A: the response (Absorbance (405 nm)) was 0.2.
With chain 1 A11S the figure was 0.11; with chain 1 G3A, 0.2.
As to chain 1 G10A, the response (Absorbance (405 nm)) came out at 0.25.
